{
  "source": "paper PMC8017197",
  "about": "(Frontiers in Immunology, 2021)",
  "binders": {"B1": {"name": "GST-fused UBZ domain (a.a. 394-446) of NDP52 (domain or fragment, human, UniProt Q13137 394-446, looked up)", "chain": "IKKCPICKADDICDHTLEQQQMQPLCFNCPICDKIFPATEKQIFEDHVFCHSL", "notes": "NDP52 (CALCOCO2), human, UBZ domain, a.a; Vector pGEX6p-1; also called GST-fused NDP52-UBZ domain; source: E. coli BL21 (DE3)pLysS, purified with a GSTrap column"}},
  "target": "T1, linear (M1)-tetraubiquitin (UniProt P0CG48 1-76; P0CG48 1-76; P0CG48 1-76; P0CG48 1-76)",
  "T1 construct": "ubiquitin, first of four units joined head to tail (Met1-linked); ubiquitin, second unit; ubiquitin, third unit; ubiquitin, fourth unit; Four ubiquitins on one chain, N-terminal Met1 linked to the C-terminus of the unit before; also called linear (M1)-linked tetraubiquitin; source: bought: Boston Biochem",
  "T1 sequence (P0CG48 1-304, one chain of several)": "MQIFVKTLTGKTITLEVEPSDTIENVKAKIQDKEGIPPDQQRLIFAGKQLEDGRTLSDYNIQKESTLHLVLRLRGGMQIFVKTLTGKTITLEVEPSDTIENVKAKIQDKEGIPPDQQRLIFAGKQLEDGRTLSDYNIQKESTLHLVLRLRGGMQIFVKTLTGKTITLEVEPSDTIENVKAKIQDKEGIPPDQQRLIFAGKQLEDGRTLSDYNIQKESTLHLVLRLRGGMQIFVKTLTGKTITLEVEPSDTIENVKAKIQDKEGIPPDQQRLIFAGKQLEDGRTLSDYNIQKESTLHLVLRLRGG",
  "test": "pull-down; GST-fusion proteins with tetraubiquitin (3.4 μg), then glutathione Sepharose at 4°C 1 h; bound ubiquitin detected by anti-ubiquitin immunoblotting",
  "settings": "both partners purified",
  "data": [
    {"binder": "B1", "values": [
      {"measurement": "binding result", "value": "binds"}
    ]}
  ]
}
